According to patent US20200024330A1:

B1: PGT-128 (antibody, V domains shown)
VH: QPQLQESGPTLVEASETLSLTCAVSGDSTAACNSFWGWVRQPPGKGLEWVGSLSHCASYWNRGWTYHNPSLKSRLTLALDTPKNLVFLKLNSVTAADTATYYCARFGGEVLRYTDWPKPAWVDLWGRGTLVTVSS
VL: QSALTQPPSASGSPGQSITISCTGTSNNFVSWYQQHAGKAPKLVIYDVNKRPSGVPDRFSGSKSGNTASLTVSGLQTDDEAVYYCGSLVGNWDVIFGGGTKLTVL
B2: PGT-131 (antibody, V domains shown)
VH: QVQLQESGPGLVKPSETLSLTCTVSGDSINTGHHYWGWVRQVPGKGPEWIAHIHYNTAVLHNPALKSRVTISIFTLKNLITLSLSNVTAADTAVYFCVRSGGDILYYIEWQKPHWFYPWGPGILVTVSS
VL: QSALTQPPSASGSLGQSLTISCSGTGSDIGSWNFVSWYQQFPGRAPNLIIFEVNRRRSGVPDRFSGSKSGNTASLTVSGLRSEDEAEYFCSSLSGRWDIVFGGGTKVTVL
B3: PGT-135 (antibody, V domains shown)
VH: QLQMQESGPGLVKPSETLSLSCTVSGDSIRGGEWGDKDYHWGWVRHSAGKGLEWIGSIHWRGTTHYKESLRRRVSMSIDTSRNWFSLRLASVTAADTAVYFCARHRHHDVFMLVPIAGWFDVWGPGVQVTVSS
VL: EIVMTQSPDTLSVSPGETVTLSCRASQNINKNLAWYQYKPGQSPRLVIFETYSKIAAFPARFVASGSGTEFTLTINNMQSEDVAVYYCQQYEEWPRTFGQGTKVDIK
B4: PGT-130 (antibody, V domains shown)
VH: QVQLQESGPGLVKPAETLSLTCSVSGESINTGHYYWGWVRQVPGKGLEWIGHIHYTTAVLHNPSLKSRLTIKIYTLRNQITLRLSNVTAADTAVYHCVRSGGDILYYYEWQKPHWFSPWGPGIHVTVSS
VL: QSALTQPPSASGSLGQSVTISCNGTSSDIGGWNFVSWYQQFPGRAPRLIIFEVNKRPSGVPGRFSGSKSGNSASLTVSGLQSDDEGQYFCSSLFGRWDVVFGGGTKLTVL

target: HIV-1 JR-CSF Env R350A (HIV-1 isolate JR-CSF) (UniProt P20871); experiment: cell-based or functional assay

Binder | Fold IC50 increase relative to wild-type
B1 | 1 fold
B2 | 1.3 fold
B3 | 0.9 fold
B4 | 0.5 fold

target: HIV-1 JR-CSF Env N295A (HIV-1 JR-CSF) (UniProt P20871); experiment: cell-based or functional assay

Binder | Fold IC50 increase relative to wild-type
B1 | 1 fold
B2 | 2.1 fold
B3 | > 18 fold
B4 | 0.7 fold

target: HIV-1 Env of isolate JR-CSF (HIV-1) (UniProt P20871); experiment: cell-based or functional assay

Binder | Polyclonal Transfectant Neutralization Index (well 5114 A19) | Primary Neutralization Index (B cell culture well 5114 A19) | Primary Neutralization Index (B cell culture well 5136 H1) | Primary Neutralization Index (B cell culture well 5343 B8) | Primary Neutralization Index (B cell culture well 5344 E16) | Polyclonal Transfectant Neutralization Index (well 5147 N6) | Primary Neutralization Index (B cell culture well 5147 N6)
B1 | 136 | 77.5 | – | – | – | – | –
B2 | – | – | 6.2 | – | – | – | –
B3 | – | – | – | 1.8 | 1.5 | – | –
B4 | – | – | – | – | – | 1.24 | 19.3

target: HIV-1 JR-CSF Env P299A (HIV-1 JR-CSF) (UniProt P20871); experiment: cell-based or functional assay

Binder | Fold IC50 increase relative to wild-type
B1 | 1.2 fold
B2 | 2 fold
B3 | 0.36 fold
B4 | 0.8 fold

target: HIV-1 JR-CSF Env N276A (HIV-1 JR-CSF) (UniProt P20871); experiment: cell-based or functional assay

Binder | Fold IC50 increase relative to wild-type
B1 | 0.6 fold
B2 | 0.8 fold
B3 | 2.5 fold
B4 | 1 fold

target: HIV-1 JR-CSF Env T303A (HIV-1 JR-CSF) (UniProt P20871); experiment: cell-based or functional assay

Binder | Fold IC50 increase relative to wild-type
B1 | > 500 fold
B2 | > 170 fold
B3 | 0.3 fold
B4 | > 250 fold

target: HIV-1 JR-CSF Env N355A (HIV-1 isolate JR-CSF) (UniProt P20871); experiment: cell-based or functional assay

Binder | Fold IC50 increase relative to wild-type
B1 | 0.7 fold
B2 | 2.3 fold
B3 | 0.8 fold
B4 | 1.3 fold

target: HIV-1 JR-CSF Env T413A (HIV-1 (isolate JR-CSF)) (UniProt P20871); experiment: cell-based or functional assay

Binder | Fold IC50 increase relative to wild-type
B1 | 1 fold
B2 | 0.6 fold
B3 | 0.3 fold
B4 | 0.6 fold

target: HIV-1 JR-CSF Env N392Q (HIV-1 (isolate JR-CSF)) (UniProt P20871); experiment: cell-based or functional assay

Binder | Fold IC50 increase relative to wild-type
B1 | 0.9 fold
B2 | 0.4 fold
B3 | > 250 fold
B4 | 1.2 fold

target: HIV-1 JR-CSF Env N386A (HIV-1 isolate JR-CSF) (UniProt P20871); experiment: cell-based or functional assay

Binder | Fold IC50 increase relative to wild-type
B1 | 1.1 fold
B2 | 1.1 fold
B3 | 0.3 fold
B4 | 0.1 fold

target: Env of the clade F HIV-1 pseudoviruses of the cross-clade 162-pseudovirus panel (n = 15); experiment: cell-based or functional assay

Binder | Median IC50 against viruses neutralized with an IC50 <50 µg/ml
B1 | 0.52 µg/mL
B2 | 0.55 µg/mL
B3 | 0.21 µg/mL
B4 | 0.07 µg/mL

target: HIV-1 JR-CSF Env S306A (HIV-1 JR-CSF) (UniProt P20871); experiment: cell-based or functional assay

Binder | Fold IC50 increase relative to wild-type
B1 | 1.1 fold
B2 | 0.7 fold
B3 | 0.4 fold
B4 | 1.5 fold

target: HIV-1 APV6 envelope glycoprotein (Env) (HIV-1); experiment: cell-based or functional assay

Binder | IC50 neutralization
B3 | > 10 µg/mL
B4 | > 10 µg/mL

target: HIV-1 JR-CSF Env Q337A (HIV-1 isolate JR-CSF) (UniProt P20871); experiment: cell-based or functional assay

Binder | Fold IC50 increase relative to wild-type
B1 | 0.7 fold
B2 | 1.3 fold
B3 | 2.1 fold
B4 | 1 fold

target: HIV-1 JR-CSF Env H330A (HIV-1 isolate JR-CSF) (UniProt P20871); experiment: cell-based or functional assay

Binder | Fold IC50 increase relative to wild-type
B1 | 0.3 fold
B2 | 0.5 fold
B3 | > 250 fold
B4 | 0.9 fold

target: HIV-1 93IN905 envelope glycoprotein (Env) (HIV-1); experiment: cell-based or functional assay

Binder | IC50 neutralization
B3 | 0.0183 µg/mL
B4 | 0.0182 µg/mL

target: Env of the clade D HIV-1 pseudoviruses of the cross-clade 162-pseudovirus panel (n = 25); experiment: cell-based or functional assay

Binder | Median IC50 against viruses neutralized with an IC50 <50 µg/ml
B1 | 0.02 µg/mL
B2 | 0.85 µg/mL
B3 | 1.09 µg/mL
B4 | 0.65 µg/mL

target: HIV-1 JR-CSF Env I323A (HIV-1 isolate JR-CSF) (UniProt P20871); experiment: cell-based or functional assay

Binder | Fold IC50 increase relative to wild-type
B1 | 3 fold
B2 | 38 fold
B3 | 1.5 fold
B4 | 0.8 fold

target: Env of the clade A HIV-1 pseudoviruses of the cross-clade 162-pseudovirus panel (n = 26); experiment: cell-based or functional assay

Binder | Median IC50 against viruses neutralized with an IC50 <50 µg/ml
B1 | 0.01 µg/mL
B2 | 0.09 µg/mL
B3 | 0.64 µg/mL
B4 | 0.09 µg/mL

target: HIV-1 JR-CSF Env N411A (HIV-1 (isolate JR-CSF)) (UniProt P20871); experiment: cell-based or functional assay

Binder | Fold IC50 increase relative to wild-type
B1 | 0.7 fold
B2 | 0.6 fold
B3 | 0.2 fold
B4 | 0.6 fold

target: HIV-1 JR-CSF Env R419A (HIV-1 (isolate JR-CSF)) (UniProt P20871); experiment: cell-based or functional assay

Binder | Fold IC50 increase relative to wild-type
B1 | 0.5 fold
B2 | 1.7 fold
B3 | 3.9 fold
B4 | 2.6 fold

target: HIV-1 JR-CSF Env N301A (HIV-1 JR-CSF) (UniProt P20871); experiment: cell-based or functional assay

Binder | Fold IC50 increase relative to wild-type
B1 | 10.7 fold
B2 | > 170 fold
B3 | 0.5 fold
B4 | > 1000 fold

target: HIV-1 JR-CSF Env T341A (HIV-1 isolate JR-CSF) (UniProt P20871); experiment: cell-based or functional assay

Binder | Fold IC50 increase relative to wild-type
B1 | 1.3 fold
B2 | 1.3 fold
B3 | 0.6 fold
B4 | 0.8 fold

target: HIV-1 JR-CSF Env T394A (HIV-1 (isolate JR-CSF)) (UniProt P20871); experiment: cell-based or functional assay

Binder | Fold IC50 increase relative to wild-type
B1 | 3 fold
B2 | 0.9 fold
B3 | > 75 fold
B4 | 1.2 fold

target: HIV-1 JR-CSF Env Q422A (HIV-1 (isolate JR-CSF)) (UniProt P20871); experiment: cell-based or functional assay

Binder | Fold IC50 increase relative to wild-type
B1 | 0.2 fold
B2 | 1.9 fold
B3 | 0.8 fold
B4 | 1 fold

target: HIV-1 JR-CSF Env R327A (HIV-1 isolate JR-CSF) (UniProt P20871); experiment: cell-based or functional assay

Binder | Fold IC50 increase relative to wild-type
B1 | 2.5 fold
B2 | 19 fold
B3 | 0.67 fold
B4 | 2.4 fold

target: HIV-1 JR-CSF Env E321aA (HIV-1 isolate JR-CSF) (UniProt P20871); experiment: cell-based or functional assay

Binder | Fold IC50 increase relative to wild-type
B1 | 1.3 fold
B2 | 1.8 fold
B3 | 0.8 fold
B4 | 1.7 fold

target: HIV-1 JR-CSF Env K421A (HIV-1 (isolate JR-CSF)) (UniProt P20871); experiment: cell-based or functional assay

Binder | Fold IC50 increase relative to wild-type
B1 | 2 fold
B2 | 11 fold
B3 | 0.3 fold
B4 | 2.9 fold

target: HIV-1 JR-CSF Env R304A (HIV-1 JR-CSF) (UniProt P20871); experiment: cell-based or functional assay

Binder | Fold IC50 increase relative to wild-type
B1 | 0.7 fold
B2 | 1.5 fold
B3 | 0.7 fold
B4 | 2.5 fold

target: HIV-1 JR-CSF Env I420A (HIV-1 (isolate JR-CSF)) (UniProt P20871); experiment: cell-based or functional assay

Binder | Fold IC50 increase relative to wild-type
B1 | 0.8 fold
B2 | 153 fold
B3 | 1.4 fold
B4 | 9.8 fold

target: HIV-1 JR-CSF Env N332A (HIV-1 isolate JR-CSF) (UniProt P20871); experiment: cell-based or functional assay

Binder | Fold IC50 increase relative to wild-type
B1 | 1.4 fold
B2 | 0.5 fold
B3 | > 250 fold
B4 | 0.6 fold

target: HIV-1 MGRM-C-027 envelope glycoprotein (Env) (HIV-1); experiment: cell-based or functional assay

Binder | IC50 neutralization
B3 | > 10 µg/mL
B4 | 0.0052 µg/mL

target: WT JR-FL gp120 (HIV-1 (isolate JR-FL)); experiment: ELISA on coated gp120; EC50 by nonlinear regression

Binder | EC50
B1 | 0.1 µg/mL
B2 | 0.4 µg/mL
B3 | 0.1 µg/mL
B4 | 0.2 µg/mL

target: JR-FL gp120 ΔV1/ΔV2 (HIV-1 (isolate JR-FL)); experiment: as above

Binder | EC50
B1 | 0.3 µg/mL
B3 | 0.1 µg/mL
